Results as given in patent publication US20230235058A1 (OXFORD UNIVERSITY INNOVATION, published 2023).
Substitutions are numbered along the chain they refer to. Names and notes keep the numbering of the source.

B1: 16H2 (antibody, IgG1, V domains shown)
VH: EVQLQQSGPELVQPGASVKISCKASGYTFTDYYMIWVKQSHGKSLEWIGNINPNNGGTTYNQKFKGKATLTVDKSSSTAYMGLPSLTSEDSAVYYCARGGLRPLYFDYWGQGTTLTVSS
VL: NIVMTQSPKSMSMSVGERVTLSCKASENVDTYVSWYQQKPEQSPKLLIYGASNRYTGVPDRFTGSGSATDFTLTISSVQAEDLADYHCGQSYSYPLTFGAGTKLELI
notes: mIgG1
B2: 27G9 (antibody, IgG1, V domains shown)
VH: EVQLQQSVAELVRPGASVKLSCTASGFNIKNTYMHWVKQRPEQGLEWIGRIDPANGNTKYAPKFQGKATITADTSSNTAYLQLSSLTSEDTAIYYCALTYYGSSQYYFDYWGQGTTLTVSS
VL: not shown
notes: mIgG1
B3: 1H6 (antibody, IgG1, V domains shown)
VH: B2 VH with A61D, L81V, Y106H
VL: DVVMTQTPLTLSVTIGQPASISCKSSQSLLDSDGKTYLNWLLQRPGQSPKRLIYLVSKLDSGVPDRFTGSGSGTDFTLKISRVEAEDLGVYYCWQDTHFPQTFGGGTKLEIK
notes: mIgG1
B4: 26F3 (antibody, IgG1, V domains shown)
VH: B2 VH with H35Y, T99L, Q105Y, Y106D
VL: not shown
notes: mIgG1
B5: 14D4 (antibody, IgG1, V domains shown)
VH: QVQLQQPGAELVKPRASVKLSCKASGYTFTSYWMHWVKQRPGQGLEWIGMIHPNNGIPNYNEKFKSKATLTVDKSSTTAYMQLSSLTSEDSAVYHCAREGYYGSEGYFDVWGTGTTVTVSS
VL: QIVLTQSPAIMSASPGEKVTMTCSASSSISYIHWYQQKPGTSPKRWIYDTSKLASGVPARFSGSGSGTSYSLTISSMEAEDAATYYCHQRSTYPYTFGGGTKLEIK
notes: mIgG1
B6: 6.2 (antibody, IgG1, V domains shown)
VH: EVKLVESGGGLVKPGGSLKLSCAASGFTLSSYGMSWVRQIPEKRLEWVASIRSDGNTYYPDSVKGRFIISRDNARNILYLQMSSLRSEDTAMYYCTRGGYYGSSPYYWGQGTTLTVSS
VL: DIVMSQSPSSLPVSVGEKISMTCKSSQSLLYSSNQKNYLAWYQQKPGQSPKLLIYWASTRDSGVPDRFIGSGSGTDFTLTINSVKAEDLAVYYCQQYYNYLTFGAGTKLELK
notes: mIgG1; also called clone 6.2; parent clone 6.2
B7: 8C4 (antibody, IgG1, V domains shown)
VH: DVQLQESGPGMVKPSQSLSLTCTVTGYSITSGYDWHWIRHFPGNKLEWMGYISYSGSTNYNPSLKSRISITHDTSKNHFFLKLNSVTTEDTATYYCARGTPVVAEDYFDYWGQGTTLTVSS
VL: QAVVTQESALSTSPGETVTLTCRSSTGAVTTSNYANWVQEKPDHLFTGLIGATNNRAPGVPARFSGSLIGDKAALTITGAQTEDEAIYFCALWYSNHLVFGGGTKLTVLG
notes: mIgG1
B8: 3E8 (antibody, IgG1, V domains shown)
VH: QVQLQQSGAELARPGASVRLSCKASGYTFTSYAIRWVKQRTGQGLEWIGEIYPRSGNTYYNENFKGKATLTADKSSSTAYMELRSLTSEDSAVYFCARSGGASYTMDYWGQGTSVTVSS
VL: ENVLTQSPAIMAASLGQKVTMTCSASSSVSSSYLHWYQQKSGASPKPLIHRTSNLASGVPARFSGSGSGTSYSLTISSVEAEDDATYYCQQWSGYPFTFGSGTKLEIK
notes: mIgG1; also called clone 3E8
B9: humanised 2.8.6 hIgG1 D265A S267E A330R (antibody)
heavy: QVTLKESGPALVKPTQTLTLTCTVSGFSLTTYGVHWIRQPPGKALEWLGVMWPGGRTSYNPSLKSRLTITKDNSKSQVVLTMTNMDPVDTATYYCVRGDYEYDYYAMDYWGQGTLVTVSSASTKGPSVFPLAPSSKSTSGGTAALGCLVKDYFPEPVTVSWNSGALTSGVHTFPAVLQSSGLYSLSSVVTVPSSSLGTQTYICNVNHKPSNTKVDKKVEPKSCDKTHTCPPCPAPELLGGPSVFLFPPKPKDTLMISRTPEVTCVVVAVEHEDPEVKFNWYVDGVEVHNAKTKPREEQYNSTYRVVSVLTVLHQDWLNGKEYKCKVSNKALPRPIEKTISKAKGQPREPQVYTLPPSREEMTKNQVSLTCLVKGFYPSDIAVEWESNGQPENNYKTTPPVLDSDGSFFLYSKLTVDKSRWQQGNVFSCSVMHEALHNHYTQKSLSLSPGK
light: EIVLTQSPATLSLSPGERATLSCRASSSVSYMHWYQQKPGQAPRPLIYATSNRATGIPARFSGSGSGTDYTLTISSLEPEDFAVYYCHQWSSNPYTFGQGTKLEIKRTVAAPSVFIFPPSDEQLKSGTASVVCLLNNFYPREAKVQWKVDNALQSGNSQESVTEQDSKDSTYSLSSTLTLSKADYEKHKVYACEVTHQGLSSPVTKSFNRGEC
notes: Fc variant with the variable domains of humanised 2.8.6; copies: 2 + 2

Assays:
[1] = molecular target: T1, soluble cynomolgus macaque BTLA extracellular domain (BTLA K31-R151) (cynomolgus macaque); assay: SPR 37C, mAb captured, BTLA ECD analyte;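 further: Anti-BTLA mouse antibodies captured on a sensor chip via polyclonal anti-mouse IgG, isotype control antibody in reference channel, rates fitted after reference and blank subtraction to derive Kd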
T1 construct: also called cynomolgus BTLA; cyno BTLA
T1 chain: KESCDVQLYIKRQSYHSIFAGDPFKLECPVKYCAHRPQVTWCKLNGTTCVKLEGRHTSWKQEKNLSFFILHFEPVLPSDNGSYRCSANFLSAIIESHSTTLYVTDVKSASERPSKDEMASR
Protocol: (§1) Mouse antibody capture kit (GE Healthcare) was used to coat a Series S CMS Sensor Chip (GE Healthcare) with polyclonal anti-mouse IgG. Anti-BTLA antibody was then captured onto the biosensor surface and a negative control antibody (clone Mopc21; Biolegend) captured in the reference channel. […] Association and dissociation rates were fitted using BiaEvaluation Software (GE Healthcare) after reference and blank subtractions, and dissociation constants were calculated (FIG. 1b).

[2] = molecular target: chimeric BTLA of humanised-BTLA mice (human extracellular region, murine transmembrane and signaling … (human; mouse, UniProt Q7TSA3 184-306, limits assumed); assay: cell-based or functional assay
chimeric BTLA of humanised-BTLA mice (human extracellular region, murine transmembrane and signaling …, sequence (Q7TSA3 other isoform, or with tags, fused parts or gaps mutant limits assumed): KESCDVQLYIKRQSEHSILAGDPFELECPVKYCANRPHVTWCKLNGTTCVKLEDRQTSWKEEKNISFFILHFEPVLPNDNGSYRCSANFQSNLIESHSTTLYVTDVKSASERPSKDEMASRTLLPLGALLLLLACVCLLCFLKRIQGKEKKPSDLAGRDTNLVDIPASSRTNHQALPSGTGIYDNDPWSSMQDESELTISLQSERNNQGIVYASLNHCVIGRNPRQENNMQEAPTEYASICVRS

[3] = molecular target: full length human BTLA expressed on cells (human, UniProt Q7Z6A9 31-289); assay: cell-based or functional assay
[4] = molecular target: T2, monomeric soluble human BTLA extracellular domain (BTLA K31-R151) (human, UniProt Q7Z6A9 31-151); assay: SPR 37C, mAb captured, BTLA ECD analyte;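 further: Anti-BTLA mouse antibodies captured on a sensor chip via polyclonal anti-mouse IgG, isotype control antibody in reference channel, rates fitted after reference and blank subtraction to derive Kd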
T2 construct: also called hBTLA; monomeric BTLA
Protocol: as §1

human FcγR2A 131R = molecular target: T3, human FcγR2A 131R (human, UniProt P12318 34-217); assay: SPR 37C, steady state;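 further: fc variants captured on chip-bound human BTLA ectodomain, recombinant FcγR ectodomains injected as analyte at varied concentrations, double-referenced equilibrium binding fitted to Langmuir model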
T3 construct: extracellular domain
T3 sequence (looked up): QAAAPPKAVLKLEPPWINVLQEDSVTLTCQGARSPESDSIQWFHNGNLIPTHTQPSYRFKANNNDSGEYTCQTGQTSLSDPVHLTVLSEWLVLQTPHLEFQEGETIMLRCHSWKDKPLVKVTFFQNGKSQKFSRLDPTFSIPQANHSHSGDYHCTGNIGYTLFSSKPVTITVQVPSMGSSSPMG

human FcγR2A 131H = molecular target: T4, human FcγR2A 131H (human, UniProt P12318 34-217); assay: SPR 37C, steady state;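 further: fc variants captured on chip-bound human BTLA ectodomain, recombinant FcγR ectodomains injected as analyte at varied concentrations, double-referenced equilibrium binding fitted to Langmuir model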
T4 construct: extracellular domain
T4 sequence (looked up): T3 sequence (looked up) with R134H

human FcγR3B = molecular target: T5, human FcγR3B (human, UniProt O75015 17-200, limits assumed); assay: SPR 37C, steady state;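 further: fc variants captured on chip-bound human BTLA ectodomain, recombinant FcγR ectodomains injected as analyte at varied concentrations, double-referenced equilibrium binding fitted to Langmuir model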
T5 construct: extracellular domain; also called CD16B
T5 sequence (O75015 17-200 limits assumed): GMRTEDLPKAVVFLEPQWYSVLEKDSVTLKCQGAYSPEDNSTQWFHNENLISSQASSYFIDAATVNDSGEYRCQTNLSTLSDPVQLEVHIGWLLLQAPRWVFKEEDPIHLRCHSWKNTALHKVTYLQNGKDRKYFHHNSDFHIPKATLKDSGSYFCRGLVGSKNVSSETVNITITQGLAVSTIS

human FcγR3A 158F = molecular target: T6, human FcγR3A 158F (human, UniProt P08637 17-208); assay: SPR 37C, steady state;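 further: fc variants captured on chip-bound human BTLA ectodomain, recombinant FcγR ectodomains injected as analyte at varied concentrations, double-referenced equilibrium binding fitted to Langmuir model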
T6 construct: extracellular domain
T6 sequence (P08637 17-208): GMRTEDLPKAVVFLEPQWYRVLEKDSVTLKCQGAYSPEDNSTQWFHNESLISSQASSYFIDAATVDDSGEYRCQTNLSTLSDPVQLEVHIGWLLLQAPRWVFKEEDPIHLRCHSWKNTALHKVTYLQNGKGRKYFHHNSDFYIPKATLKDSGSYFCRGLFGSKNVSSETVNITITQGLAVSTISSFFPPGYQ

human FcγR2B = molecular target: T7, human FcγR2B (human, UniProt P31994 43-217); assay: SPR 37C, steady state
T7 construct: extracellular domain; also called hFcγR2B; CD32B
T7 sequence (looked up): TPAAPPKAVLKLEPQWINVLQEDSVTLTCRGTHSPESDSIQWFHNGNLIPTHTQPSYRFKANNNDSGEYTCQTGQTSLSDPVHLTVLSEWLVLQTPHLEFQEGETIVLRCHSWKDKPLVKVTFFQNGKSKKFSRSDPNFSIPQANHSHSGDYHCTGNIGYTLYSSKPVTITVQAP

human FcγR3A 158V = molecular target: T8, human FcγR3A 158V (human, UniProt P08637 17-208); assay: SPR 37C, steady state
T8 construct: extracellular domain
T8 sequence (P08637 17-208 F176V): as the sequence (P08637 17-208) above, with F160V counted along it
Wherever AntiCD3/CD28 (CD4 T cell proliferation) repeat 1 is given: test concentration or dose not given here.
Wherever AntiCD3/CD28 (CD4 T cell proliferation) repeat 2 is given: test concentration or dose not given here.
Wherever AntiCD3/CD28 (CD69+ CD4 T cells) repeat 1 is given: test concentration or dose not given here.
Wherever AntiCD3/CD28 (CD69+ CD4 T cells) repeat 2 is given: test concentration or dose not given here.
Wherever MLR (CD4 T cell proliferation) repeat 1 is given: test concentration or dose not given here.
Wherever MLR (CD4 T cell proliferation) repeat 2 is given: test concentration or dose not given here.
Wherever T cell reporter (NFκB signaling) is given: test concentration or dose not given here.

Binder | Kd [1] | AntiCD3/CD28 (CD4 T cell proliferation) repeat 1 [2] | AntiCD3/CD28 (CD4 T cell proliferation) repeat 2 [2] | AntiCD3/CD28 (CD69+ CD4 T cells) repeat 1 [2] | AntiCD3/CD28 (CD69+ CD4 T cells) repeat 2 [2] | MLR (CD4 T cell proliferation) repeat 1 [2] | MLR (CD4 T cell proliferation) repeat 2 [2] | T cell reporter (NFκB signaling) [3] | Kd [4] | koff [4] | kon [4] | Kd (human FcγR2A 131R) | Kd (human FcγR2A 131H) | binding result (human FcγR3B) | binding result (human FcγR3A 158F) | Kd (human FcγR2B) | binding result (human FcγR3A 158V)
B1 | 0.16 µM | 11 % inhibition | 23 % inhibition | 51 % inhibition | 60 % inhibition | 40 % inhibition | 26 % inhibition | 29 % inhibition | – | – | – | – | – | – | – | – | –
B2 | 0.654 µM | 10 % inhibition | 13 % inhibition | 24 % inhibition | 22 % inhibition | 9 % inhibition | 8 % inhibition | 24 % inhibition | 0.437 µM | 0.0838 s⁻¹ | 192000 M⁻¹ s⁻¹ | – | – | – | – | – | –
B3 | 0.00608 µM | 26 % inhibition | 19 % inhibition | 47 % inhibition | 53 % inhibition | 31 % inhibition | 16 % inhibition | 26 % inhibition | – | – | – | – | – | – | – | – | –
B4 | 0.81 µM | 4 % inhibition | 0 % inhibition | 19 % inhibition | 17 % inhibition | 9 % inhibition | -5 % inhibition | 20 % inhibition | 2.2 µM | 2.02 s⁻¹ | 921000 M⁻¹ s⁻¹ | – | – | – | – | – | –
B5 | 0.00183 µM | 24 % inhibition | 29 % inhibition | 43 % inhibition | 52 % inhibition | 39 % inhibition | 26 % inhibition | 16 % inhibition | – | – | – | – | – | – | – | – | –
B6 | 0.00971 µM | 19 % inhibition | 21 % inhibition | 53 % inhibition | 61 % inhibition | 31 % inhibition | 35 % inhibition | 26 % inhibition | 0.0017 µM | 0.00107 s⁻¹ | 630000 M⁻¹ s⁻¹ | – | – | – | – | – | –
B7 | 0.161 µM | 12 % inhibition | 4 % inhibition | 29 % inhibition | 29 % inhibition | 42 % inhibition | -2 % inhibition | 21 % inhibition | – | – | – | – | – | – | – | – | –
B8 | 0.607 µM | 27 % inhibition | 35 % inhibition | 52 % inhibition | 64 % inhibition | 43 % inhibition | 35 % inhibition | 30 % inhibition | 0.112 µM | 0.0608 s⁻¹ | 543000 M⁻¹ s⁻¹ | – | – | – | – | – | –
B9 | – | – | – | – | – | – | – | – | – | – | – | 22 µM | 113 µM | no binding | no binding | 80.1 µM | no binding
